The values below come from paper PMC2139940 (The Journal of Cell Biology, 1997).

Assay [1] addresses actin filaments (actin purified from rabbit skeletal muscle, polymerized) (rabbit, UniProt P68135 1-377). As to the kind of experiment: co-sedimentation.
For assay [2], the target named is T1, GST fusion protein with α catenin (mouse, UniProt P26231 1-906).
T1 sequence (looked up): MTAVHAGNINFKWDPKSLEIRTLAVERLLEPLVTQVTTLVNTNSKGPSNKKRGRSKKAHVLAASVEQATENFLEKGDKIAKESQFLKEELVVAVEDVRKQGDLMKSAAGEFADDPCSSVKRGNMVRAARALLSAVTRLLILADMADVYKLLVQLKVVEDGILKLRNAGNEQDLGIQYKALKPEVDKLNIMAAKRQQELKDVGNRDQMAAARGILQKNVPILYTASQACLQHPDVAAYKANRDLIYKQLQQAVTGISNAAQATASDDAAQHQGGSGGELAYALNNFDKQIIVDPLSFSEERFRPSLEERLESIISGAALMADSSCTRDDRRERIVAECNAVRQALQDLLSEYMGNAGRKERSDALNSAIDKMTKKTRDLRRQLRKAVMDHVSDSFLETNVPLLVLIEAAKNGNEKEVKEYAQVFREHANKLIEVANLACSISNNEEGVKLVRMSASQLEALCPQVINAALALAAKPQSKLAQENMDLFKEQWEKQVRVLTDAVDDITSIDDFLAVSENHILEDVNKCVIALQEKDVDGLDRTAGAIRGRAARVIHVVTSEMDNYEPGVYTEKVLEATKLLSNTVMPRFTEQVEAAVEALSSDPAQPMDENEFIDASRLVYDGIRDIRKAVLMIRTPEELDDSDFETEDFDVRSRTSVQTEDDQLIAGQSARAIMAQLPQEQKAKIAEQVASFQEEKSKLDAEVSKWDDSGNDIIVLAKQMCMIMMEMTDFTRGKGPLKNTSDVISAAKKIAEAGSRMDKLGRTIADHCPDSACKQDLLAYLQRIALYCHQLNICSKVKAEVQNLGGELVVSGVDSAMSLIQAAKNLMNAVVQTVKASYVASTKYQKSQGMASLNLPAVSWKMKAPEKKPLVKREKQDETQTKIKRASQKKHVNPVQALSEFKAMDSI
The assay is described as follows: pull-down.

B1: recombinant carboxyl-terminal half of ZO-1 (C-ZO-1; 863–1745 aa) produced in Sf9 cells (domain or fragment)
chain: NDEVGTPPESAITRSSEPVREDSSGMHHENQTYPPYSPQAQPQAIHRIDSPGLKPASQQKAEASSPVPYLSPETTPASSASAVNHNVSVTNVSLEEPAPAPPTSHASQPGCLGAPSAEAAHVVLRGEGPPLPPHADPAKVYRKEPYSEEMMRQNHILKQPALGHPGQRPDKEPNLAYEPQLPYIEKQASRDLEQPSYRYEVSSYTDQFSRNYDHRLRFEDRIPTYEDQWSYYDDKQPYQPRPFENQHPRDLDSRQHPEEASERGYFQRFEEPAPLSYDSRTRYEQLPRTSTLRHEEQPAPAYEVHNRYRPEAQPYSSTGPKSSEPKQYFDQYPRSYEQVPPPGFTSKTGHYEPLHGAAVVPPLIPSSQQKPEVLPSATKPQPPPPTLTEEEEDPAMKPQSVLTRVKMFENKRSASLENKKDVNDTASFKPPEVASKPPGASLAGPKPVPQSQFSEHDKTLYRLPEPQKPQVKPPEDIVRSNHYDPEEDEEYYRKQLSYFDRRSFESKPSAHLPAGHHSEPAKPVHSQSQPNFSSYSSKGKPETDAVDRSFSEKRYDPAQATPPPPPLPSQYSQPAPPLSSSSLHIHSKGAQGEGNSVSLDFQNSYMSKPDPPPSQSKPATFRPPTREDPPQTFYPQKSFPDKAPVNGAEQTQKTITPVYNRFTPKPYTSSARPFERKFESPKFNHNLLPSETVHKPELSSKTPTSPKTLMKAHSSTQPPEFDSGVETFSVHTDKPKYQMNNISTMPKAVPVSPSAVEEDEDEDGHTVVATARGIFNSNGGVLSSIETGVSIIIPQGAIPEGIEQEIYFKVCRDNSILPPLDKEKGETLLSPLVMCGPHGLKFLKPVELRLPHCDPKTWQNKCLPGDPNYLVGANCVSVLIDHF
In assay [1], B1 showed a Kd of roughly 10 nM.

B2: recombinant amino-terminal half dlg-like domain of ZO-1 (N-ZO-1; 1–862 aa) produced in Sf9 cells (domain or fragment, mouse, UniProt P39447 1-862, looked up)
chain: MSARAAAAKSTAMEETAIWEQHTVTLHRAPGFGFGIAISGGRDNPHFQSGETSIVISDVLKGGPAEGQLQENDRVAMVNGVSMDNVEHAFAVQQLRKSGKNAKITIRRKKKVQIPVSHPDPEPVSDNEDDSYDEEVHDPRAGRGALANRRSEKSWARDRSASRERSLSPRSDRRSVASSQPAKPTKVTLVKSRKNEEYGLRLASHIFVKEISQDSLAARDGNIQEGDVVLKINGTVTENMSLTDAKTLIERSKGKLKMVVQRDERATLLNVPDLSDSIHSANASERDDISEIQSLASDHSGRSHDRPPRRSQSRSPDQRSEPSDHSTQSPQQPSNGSLRSREEERMSKPGAISTPVKHVDDHPPKAVEEVTVEKNEKQTPTLPEPKPVYAQVGQPDVDLPVSPSDGALPNSAHEDGILRPSMKLVKFRKGDSVGLRLAGGNDVGIFVAGVLEDSPAAKEGLEEGDQILRVNNVDFTNIIREEAVLFLLDLPKGEEVTILAQKKKDVYRRIVESDVGDSFYIRTHFEYEKESPYGLSFNKGEVFRVVDTLYNGKLGSWLAIRIGKNHKEVERGIIPNKNRAEQLASVQYTLPKTAGGDRADFWRFRGLRSSKRNLRKSREDLSAQPVQTKFPAYERVVLREAGFLRPVTIFGPIADVAREKLAREEPDIYQIAKSEPRDAGTDHRSSGIIRLHTIKQIIDQDKHALLDVTPNAVDRLNYAQWYPIVVFLNPDSKQGVKTMRMRLCPESRKSARKLYERSHKLRKNNHHLFTTTINLNSMNDGWYGALKEAIQQQQNQLVWVSEGKADGATSDDLDLHDDRLSYLSAPGSEYSMYSTDSRHTSDYEDTDTEGGAYTDQELDETL
In assay [2], B2 had a Kd of roughly 0.5 nM.

For orientation: Kd means the equilibrium constant for the complex coming apart. A low value points to tighter binding.
